Results published in IntAct's records for PubMed 16810321.

B1: bZIP transcription factor 53 (Arabidopsis thaliana (Mouse-ear cress)), Q9LZP8 (parent)
chain: MGSLQMQTSPESDNDPRYATVTDERKRKRMISNRESARRSRMRKQKQLGDLINEVTLLKNDNAKITEQVDEASKKYIEMESKNNVLRAQASELTDRLRSLNSVLEMVEEISGQALDIPEIPESMQNPWQMPCPMQPIRASADMFDC
partner: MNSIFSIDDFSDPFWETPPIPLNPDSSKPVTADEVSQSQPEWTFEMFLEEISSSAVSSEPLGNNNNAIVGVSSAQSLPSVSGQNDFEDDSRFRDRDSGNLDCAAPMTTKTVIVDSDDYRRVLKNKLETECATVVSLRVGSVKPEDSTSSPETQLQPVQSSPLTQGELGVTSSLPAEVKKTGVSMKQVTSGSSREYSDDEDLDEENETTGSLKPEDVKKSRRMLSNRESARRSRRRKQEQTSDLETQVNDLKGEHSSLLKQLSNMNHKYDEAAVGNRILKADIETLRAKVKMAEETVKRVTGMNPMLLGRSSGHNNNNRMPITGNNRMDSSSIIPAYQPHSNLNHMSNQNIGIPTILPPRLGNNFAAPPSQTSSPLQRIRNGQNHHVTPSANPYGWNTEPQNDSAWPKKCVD
B2: bZIP transcription factor 53 (Arabidopsis thaliana (Mouse-ear cress)), Q9LZP8 (parent)
chain: B1 chain
partner: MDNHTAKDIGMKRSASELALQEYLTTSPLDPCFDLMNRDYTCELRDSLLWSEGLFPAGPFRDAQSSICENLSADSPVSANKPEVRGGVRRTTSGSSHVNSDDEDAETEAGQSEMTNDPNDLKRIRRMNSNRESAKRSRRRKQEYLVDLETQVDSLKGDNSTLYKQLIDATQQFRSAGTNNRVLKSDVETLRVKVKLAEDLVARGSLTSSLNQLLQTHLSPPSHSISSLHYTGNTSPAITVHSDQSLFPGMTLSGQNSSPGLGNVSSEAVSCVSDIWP

Variants of: B1
Settings: with bzp10_arath BZIP10, O22763

Variant | effect of a mutation on the interaction
L51P | disrupting interaction
A72P | disrupting interaction

Variants of: B2
Settings: with bzip9_arath BZIP9, Q9FUD3

Variant | effect of a mutation on the interaction
A72P | disrupting interaction
L51P | disrupting interaction
